# Experimental data reported in paper PMC4671958, “Structure of the Helicase Domain of DNA Polymerase Theta Reveals a Possible Role in the Microhomology-Mediated End-Joining Pathway” (Structure(London, England:1993), 2015).
# Several values for one entry are separate records, joined by “and”; a condition that tells them apart may be missing. Equal entries are not always repeated.
# B1: DNA polymerase theta helicase domain (Polθ-HLD), residues 67–894 (domain or fragment, human, UniProt O75417 67-894, looked up)
# chain: DKLLLANWGLPKAVLEKYHSFGVKKMFEWQAECLLLGQVLEGKNLVYSAPTSAGKTLVAELLILKRVLEMRKKALFILPFVSVAKEKKYYLQSLFQEVGIKVDGYMGSTSPSRHFSSLDIAVCTIERANGLINRLIEENKMDLLGMVVVDELHMLGDSHRGYLLELLLTKICYITRKSASCQADLASSLSNAVQIVGMSATLPNLELVASWLNAELYHTDFRPVPLLESVKVGNSIYDSSMKLVREFEPMLQVKGDEDHVVSLCYETICDNHSVLLFCPSKKWCEKLADIIAREFYNLHHQAEGLVKPSECPPVILEQKELLEVMDQLRRLPSGLDSVLQKTVPWGVAFHHAGLTFEERDIIEGAFRQGLIRVLAATSTLSSGVNLPARRVIIRTPIFGGRPLDILTYKQMVGRAGRKGVDTVGESILICKNSEKSKGIALLQGSLKPVRSCLQRREGEEVTGSMIRAILEIIVGGVASTSQDMHTYAACTFLAASMKEGKQGIQRNQESVQLGAIEACVMWLLENEFIQSTEASDGTEGKVYHPTHLGSATLSSSLSPADTLDIFADLQRAMKGFVLENDLHILYLVTPMFEDWTTIDWYRFFCLWEKLPTSMKRVAELVGVEEGFLARCVKGKVVARTERQHRQMAIHKRFFTSLVLLDLISEVPLREINQKYGCNRGQIQSLQQSAAVYAGMITVFSNRLGWHNMELLLSQFQKRLTFGIQRELCDLVRVSLLNAQRARVLYASGFHTVADLARANIVEVEVILKNAVPFKSARKAVDEEEEAVEERRNMRTIWVTGRKGLTEREAAALIVEEARMILQQDLVEM
# notes: DNA polymerase theta (Polθ, POLQ gene), human, helicase domain, residues 67–894; printed monomer mass 93,080 Da; Tetramer in crystals (by crystallographic symmetry) and in solution; Further construct details may stand in the Supplemental Experimental Procedures; also called Polθ helicase domain; 67–894 construct
# What was measured:
# [1] = target: the molecule itself; assay: SEC-MALS; Viscotek TDA 305 system, Shodex KW-803 silica column; in the absence of nucleotide
# [2] = target: the molecule itself; assay: AUC; sedimentation velocity, absorbance (280 nm) and interference optics; in the absence of nucleotide
protein,measurement,setting,value
B1,stoichiometry N,[1],~4
same,stoichiometry N,[2],4 and 3.2
